Assay results reported in US20250034277A1 (SUZHOU ALPHAMAB, published 2025).

Tests used:
[1] = molecular target: T1, FXI in standard human plasma (human, UniProt P03951 19-625); assay: cell-based or functional assay
FXI in cynomolgus plasma = FXI in cynomolgus plasma (cynomolgus); assay: cell-based or functional assay
FXI in rabbit plasma [2] = molecular target: FXI in rabbit plasma (rabbit); assay: cell-based or functional assay
FXI in rat plasma = FXI in rat plasma (rat); assay: cell-based or functional assay
[3] = molecular target: T1, FXI in standard human plasma; assay: cell-based or functional assay; remark: listed apart in the source
FXI in monkey plasma = FXI in monkey plasma (monkey); assay: cell-based or functional assay
FXI in rabbit plasma [4] = molecular target: FXI in rabbit plasma (rabbit); assay: cell-based or functional assay; remark: listed apart in the source
hFXI-CHis protein = molecular target: T2, hFXI-CHis protein (human, UniProt P03951 19-625); assay: BLI, antibody on Protein A biosensor, hFXI-Chis 50-3.125 nM, 1:1 model
T2 construct: FXI is said in the background to be a dimer; nothing is said of the construct; also called human FXI; human FXI factor protein; not shown: C-terminal His tag (CHis)

B1: reference antibody 14E11 (antibody, human IgG1, kappa, V domains shown)
VH: QVQLEESGPGLVAPSQSLSITCTVSGFSLTGYGIYWVRQPPGKGLEWLGMIWGDGRTDYNSALKSRLSISKDNSKSQVFLKMNSLQTDDTARYYCARDYYGSKDYWGQGTTLTVSS
VL: DIVMTQSHKFMSTSVGDRVSITCKASQDVSTAVAWYQQKPGQSPKLLIYLTSYRNTGVPDRFTGSGSGTDFTFTISSVQAEDLAVYYCQQHYKTPYSFGGGTKLERLR
APTT ratio in standard human plasma at 0.1 µg/mL [1]: 1 ratio | APTT ratio in standard human plasma at 0.5 µg/mL [1]: 1.09 ratio | APTT ratio in standard human plasma at 1 µg/mL [1]: 1.23 ratio | APTT ratio in standard human plasma at 2 µg/mL [1]: 1.67 ratio | APTT ratio in standard human plasma at 5 µg/mL [1]: 2.05 ratio | APTT ratio in standard human plasma at 10 µg/mL [1]: 2.09 ratio | APTT ratio in cynomolgus plasma at 0.1 µg/mL (FXI in cynomolgus plasma): 1 ratio | APTT ratio in cynomolgus plasma at 0.5 µg/mL (FXI in cynomolgus plasma): 1.07 ratio | APTT ratio in cynomolgus plasma at 1 µg/mL (FXI in cynomolgus plasma): 1.18 ratio | APTT ratio in cynomolgus plasma at 2 µg/mL (FXI in cynomolgus plasma): 1.89 ratio | APTT ratio in cynomolgus plasma at 5 µg/mL (FXI in cynomolgus plasma): 2.46 ratio | APTT ratio in cynomolgus plasma at 10 µg/mL (FXI in cynomolgus plasma): 2.53 ratio | APTT ratio in rabbit plasma at 0.1 µg/mL (FXI in rabbit plasma [2]): 0.85 ratio | APTT ratio in rabbit plasma at 0.5 µg/mL (FXI in rabbit plasma [2]): 0.88 ratio | APTT ratio in rabbit plasma at 1 µg/mL (FXI in rabbit plasma [2]): 0.93 ratio | APTT ratio in rabbit plasma at 2 µg/mL (FXI in rabbit plasma [2]): 1.17 ratio | APTT ratio in rabbit plasma at 5 µg/mL (FXI in rabbit plasma [2]): 1.88 ratio | APTT ratio in rabbit plasma at 10 µg/mL (FXI in rabbit plasma [2]): 2.05 ratio | APTT ratio in rat plasma at 0.5 µg/mL (FXI in rat plasma): 1.08 ratio | APTT ratio in rat plasma at 1 µg/mL (FXI in rat plasma): 1.04 ratio | APTT ratio in rat plasma at 2 µg/mL (FXI in rat plasma): 1.13 ratio | APTT ratio in rat plasma at 5 µg/mL (FXI in rat plasma): 1.37 ratio | APTT ratio in rat plasma at 10 µg/mL (FXI in rat plasma): 1.34 ratio | APTT ratio in rat plasma at 30 µg/mL (FXI in rat plasma): 1.37 ratio | whole blood APTT in standard human plasma at 0.1 µg/mL [3]: 22.9 | whole blood APTT in standard human plasma at 0.5 µg/mL [3]: 25.1 | whole blood APTT in standard human plasma at 1 µg/mL [3]: 28.3 | whole blood APTT in standard human plasma at 2 µg/mL [3]: 38.3 | whole blood APTT in standard human plasma at 5 µg/mL [3]: 47.2 | whole blood APTT in standard human plasma at 10 µg/mL [3]: 48.1 | whole blood APTT in monkey plasma at 0.1 µg/mL (FXI in monkey plasma): 20.9 | whole blood APTT in monkey plasma at 0.5 µg/mL (FXI in monkey plasma): 22.4 | whole blood APTT in monkey plasma at 1 µg/mL (FXI in monkey plasma): 24.7 | whole blood APTT in monkey plasma at 2 µg/mL (FXI in monkey plasma): 39.6 | whole blood APTT in monkey plasma at 5 µg/mL (FXI in monkey plasma): 51.4 | whole blood APTT in monkey plasma at 10 µg/mL (FXI in monkey plasma): 52.8 | whole blood APTT in rabbit plasma at 0.1 µg/mL (FXI in rabbit plasma [4]): 15.6 | whole blood APTT in rabbit plasma at 0.5 µg/mL (FXI in rabbit plasma [4]): 16.1 | whole blood APTT in rabbit plasma at 1 µg/mL (FXI in rabbit plasma [4]): 17.2 | whole blood APTT in rabbit plasma at 2 µg/mL (FXI in rabbit plasma [4]): 21.5 | whole blood APTT in rabbit plasma at 5 µg/mL (FXI in rabbit plasma [4]): 34.5 | whole blood APTT in rabbit plasma at 10 µg/mL (FXI in rabbit plasma [4]): 37.8

B2: reference antibody BAY1213790 (antibody, human IgG1, kappa, V domains shown)
VH: EVQLLESGGGLVQPGGSLRLSCAASGFTFSQYGMDWVRQAPGKGLEWVSGIGPSGGSTVYADSVKGRFTISRDNSKNTLYLQMNSLRAEDTAVYYCTRGGPYYYYGMDVWGQGTTVTVSS
VL: DIQMTQSPSSLSASVGDRVTITCQASQDISNYLNWYQQKPGKAPKLLIYDASNLETGVPSRFSGSGSGTDFTFTISSLQPEDIATYYCQQADSFPVTFGGGTKVEIKR
notes: Anti-FXI antibody developed by Bayer
APTT ratio in standard human plasma at 0.1 µg/mL [1]: 1 ratio | APTT ratio in standard human plasma at 0.5 µg/mL [1]: 1.14 ratio | APTT ratio in standard human plasma at 1 µg/mL [1]: 1.27 ratio | APTT ratio in standard human plasma at 2 µg/mL [1]: 1.58 ratio | APTT ratio in standard human plasma at 5 µg/mL [1]: 1.98 ratio | APTT ratio in standard human plasma at 10 µg/mL [1]: 2.22 ratio | whole blood APTT in standard human plasma at 0.1 µg/mL [3]: 22.9 | whole blood APTT in standard human plasma at 0.5 µg/mL [3]: 26.3 | whole blood APTT in standard human plasma at 1 µg/mL [3]: 29.2 | whole blood APTT in standard human plasma at 2 µg/mL [3]: 36.4 | whole blood APTT in standard human plasma at 5 µg/mL [3]: 45.6 | whole blood APTT in standard human plasma at 10 µg/mL [3]: 51.1 | whole blood APTT in monkey plasma at 0.1 µg/mL (FXI in monkey plasma): 21 | whole blood APTT in monkey plasma at 0.5 µg/mL (FXI in monkey plasma): 23.1 | whole blood APTT in monkey plasma at 1 µg/mL (FXI in monkey plasma): 25.6 | whole blood APTT in monkey plasma at 2 µg/mL (FXI in monkey plasma): 30.2 | whole blood APTT in monkey plasma at 5 µg/mL (FXI in monkey plasma): 37.1 | whole blood APTT in monkey plasma at 10 µg/mL (FXI in monkey plasma): 42.5 | whole blood APTT in rabbit plasma at 0.1 µg/mL (FXI in rabbit plasma [4]): 15.3 | whole blood APTT in rabbit plasma at 0.5 µg/mL (FXI in rabbit plasma [4]): 16 | whole blood APTT in rabbit plasma at 1 µg/mL (FXI in rabbit plasma [4]): 16.4 | whole blood APTT in rabbit plasma at 2 µg/mL (FXI in rabbit plasma [4]): 18.1 | whole blood APTT in rabbit plasma at 5 µg/mL (FXI in rabbit plasma [4]): 24.1 | whole blood APTT in rabbit plasma at 10 µg/mL (FXI in rabbit plasma [4]): 28.8 | Kd (hFXI-CHis protein): 4.12 nM
